# According to US20210206859A1 (DRAGONFLY THERAPEUTICS, published 2021):
# T1: B7-H3 expressed on human cancer cell lines (786-O, BT-474, HCC1954) (human, UniProt Q5ZPR3 29-534)
# T1 construct: The assay used B7-H3 expressed endogenously on the cell lines; also called CD276; cell expressed B7-H3
# T1 sequence: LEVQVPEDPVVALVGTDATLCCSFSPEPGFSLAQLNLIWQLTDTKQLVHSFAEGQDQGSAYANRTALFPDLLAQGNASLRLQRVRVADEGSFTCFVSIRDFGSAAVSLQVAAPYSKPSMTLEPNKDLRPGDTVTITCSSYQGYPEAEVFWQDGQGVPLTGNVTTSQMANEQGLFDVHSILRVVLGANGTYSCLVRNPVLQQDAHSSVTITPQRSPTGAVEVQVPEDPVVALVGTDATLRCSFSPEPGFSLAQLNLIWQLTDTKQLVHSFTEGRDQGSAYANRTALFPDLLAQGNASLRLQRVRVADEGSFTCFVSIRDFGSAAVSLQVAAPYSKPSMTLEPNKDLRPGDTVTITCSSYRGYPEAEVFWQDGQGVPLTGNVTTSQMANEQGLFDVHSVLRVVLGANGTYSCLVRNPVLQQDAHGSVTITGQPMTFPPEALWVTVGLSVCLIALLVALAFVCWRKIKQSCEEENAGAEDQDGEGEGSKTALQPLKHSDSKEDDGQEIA
# B1: Enoblituzumab (MacroGenics, Inc.) parental monoclonal antibody (antibody, V domains shown)
# VH: EVQLVESGGGLVQPGGSLRLSCAASGFTFSSFGMHWVRQAPGKGLEWVAYISSDSSAIYYADTVKGRFTISRDNAKNSLYLQMNSLRDEDTAVYYCGRGRENIYYGSRLDYWGQGTTVTVSS
# VL: DIQLTQSPSFLSASVGDRVTITCKASQNVDTNVAWYQQKPGKAPKALIYSASYRYSGVPSRFSGSGSGTDFTLTISSLQPEDFATYYCQQYNNYPFTFGQGTKLEIKR
# notes: also called parental mAb; B7-H3 parental monoclonal antibody
# B2: A49MI-F3′-TriNKET-huAb13v1 (bispecific antibody, human IgG1, kappa)
# scFv: DIQMTQSPSSLSASVGDRVTITCKASQNVGFNVAWYQQKPGKSPKALIYSASYRYSGVPSRFSGSGSGTDFTLTISSLQPEDFAEYFCQQYNWYPFTFGCGTKLEIKGGGGSGGGGSGGGGSGGGGSEVQLQESGPGLVKPSETLSLTCAVTGYSITSGYSWHWIRQFPGNCLEWMGYIHSSGSTNYNPSLKSRISISRDTSKNQFFLKLSSVTAADTAVYYCAGYDDYFEYWGQGTTVTVSSASDKTHTCPPCPAPELLGGPSVFLFPPKPKDTLMISRTPEVTCVVVDVSHEDPEVKFNWYVDGVEVHNAKTKPREEQYNSTYRVVSVLTVLHQDWLNGKEYKCKVSNKALPAPIEKTISKAKGQPREPRVYTLPPCRDELTKNQVSLTCLVKGFYPSDIAVEWESNGQPENNYKTTPPVLVSDGSFTLYSKLTVDKSRWQQGNVFSCSVMHEALHNHYTQKSLSLSPG
# heavy: EVQLVESGGGLVKPGGSLRLSCAASGFTFSSYSMNWVRQAPGKGLEWVSSISSSSSYIYYADSVKGRFTISRDNAKNSLYLQMNSLRAEDTAVYYCARGAPIGAAAGWFDPWGQGTLVTVSSASTKGPSVFPLAPSSKSTSGGTAALGCLVKDYFPEPVTVSWNSGALTSGVHTFPAVLQSSGLYSLSSVVTVPSSSLGTQTYICNVNHKPSNTKVDKKVEPKSCDKTHTCPPCPAPELLGGPSVFLFPPKPKDTLMISRTPEVTCVVVDVSHEDPEVKFNWYVDGVEVHNAKTKPREEQYNSTYRVVSVLTVLHQDWLNGKEYKCKVSNKALPAPIEKTISKAKGQPREPQVCTLPPSRDELTENQVSLTCLVKGFYPSDIAVEWESNGQPENNYKTTPPVLDSDGSFFLYSWLTVDKSRWQQGNVFSCSVMHEALHNHYTQKSLSLSPG
# light: DIQMTQSPSSVSASVGDRVTITCRASQGISSWLAWYQQKPGKAPKLLIYAASSLQSGVPSRFSGSGSGTDFTLTISSLQPEDFATYYCQQGVSFPRTFGGGTKVEIKRTVAAPSVFIFPPSDEQLKSGTASVVCLLNNFYPREAKVQWKVDNALQSGNSQESVTEQDSKDSTYSLSSTLTLSKADYEKHKVYACEVTHQGLSSPVTKSFNRGEC
# notes: also called TriNKET bearing 13v1 B7-H3 targeting domain; B7-H3 TriNKET
# B3: A49MI-F3′-TriNKET-huM30 (bispecific antibody, human IgG1, kappa)
# scFv: EIVLTQSPATLSLSPGERATLSCRASSRLIYMHWYQQKPGQAPRPLIYATSNLASGIPARFSGSGSGTDFTLTISSLEPEDFAVYYCQQWNSNPPTFGCGTKVEIKGGGGSGGGGSGGGGSGGGGSQVQLVQSGAEVKKPGSSVKVSCKASGYTFTNYVMHWVRQAPGQCLEWMGYINPYNDDVKYNEKFKGRVTITADESTSTAYMELSSLRSEDTAVYYCARWGYYGSPLYYFDYWGQGTLVTVSSASDKTHTCPPCPAPELLGGPSVFLFPPKPKDTLMISRTPEVTCVVVDVSHEDPEVKFNWYVDGVEVHNAKTKPREEQYNSTYRVVSVLTVLHQDWLNGKEYKCKVSNKALPAPIEKTISKAKGQPREPRVYTLPPCRDELTKNQVSLTCLVKGFYPSDIAVEWESNGQPENNYKTTPPVLVSDGSFTLYSKLTVDKSRWQQGNVFSCSVMHEALHNHYTQKSLSLSPG
# heavy: EVQLVESGGGLVKPGGSLRLSCAASGFTFSSYSMNWVRQAPGKGLEWVSSISSSSSYIYYADSVKGRFTISRDNAKNSLYLQMNSLRAEDTAVYYCARGAPIGAAAGWFDPWGQGTLVTVSSASTKGPSVFPLAPSSKSTSGGTAALGCLVKDYFPEPVTVSWNSGALTSGVHTFPAVLQSSGLYSLSSVVTVPSSSLGTQTYICNVNHKPSNTKVDKKVEPKSCDKTHTCPPCPAPELLGGPSVFLFPPKPKDTLMISRTPEVTCVVVDVSHEDPEVKFNWYVDGVEVHNAKTKPREEQYNSTYRVVSVLTVLHQDWLNGKEYKCKVSNKALPAPIEKTISKAKGQPREPQVCTLPPSRDELTENQVSLTCLVKGFYPSDIAVEWESNGQPENNYKTTPPVLDSDGSFFLYSWLTVDKSRWQQGNVFSCSVMHEALHNHYTQKSLSLSPG
# light: DIQMTQSPSSVSASVGDRVTITCRASQGISSWLAWYQQKPGKAPKLLIYAASSLQSGVPSRFSGSGSGTDFTLTISSLQPEDFATYYCQQGVSFPRTFGGGTKVEIKRTVAAPSVFIFPPSDEQLKSGTASVVCLLNNFYPREAKVQWKVDNALQSGNSQESVTEQDSKDSTYSLSSTLTLSKADYEKHKVYACEVTHQGLSSPVTKSFNRGEC
# notes: also called TriNKET bearing M30 B7-H3 targeting domain; B7-H3 TriNKET
# B4: A49MI-F3′-TriNKET-Enoblituzumab (bispecific antibody, human IgG1, kappa)
# scFv: DIQLTQSPSFLSASVGDRVTITCKASQNVDTNVAWYQQKPGKAPKALIYSASYRYSGVPSRFSGSGSGTDFTLTISSLQPEDFATYYCQQYNNYPFTFGCGTKLEIKGGGGSGGGGSGGGGSGGGGSEVQLVESGGGLVQPGGSLRLSCAASGFTFSSFGMHWVRQAPGKCLEWVAYISSDSSAIYYADTVKGRFTISRDNAKNSLYLQMNSLRDEDTAVYYCGRGRENIYYGSRLDYWGQGTTVTVSSASDKTHTCPPCPAPELLGGPSVFLFPPKPKDTLMISRTPEVTCVVVDVSHEDPEVKFNWYVDGVEVHNAKTKPREEQYNSTYRVVSVLTVLHQDWLNGKEYKCKVSNKALPAPIEKTISKAKGQPREPRVYTLPPCRDELTKNQVSLTCLVKGFYPSDIAVEWESNGQPENNYKTTPPVLVSDGSFTLYSKLTVDKSRWQQGNVFSCSVMHEALHNHYTQKSLSLSPG
# heavy: EVQLVESGGGLVKPGGSLRLSCAASGFTFSSYSMNWVRQAPGKGLEWVSSISSSSSYIYYADSVKGRFTISRDNAKNSLYLQMNSLRAEDTAVYYCARGAPIGAAAGWFDPWGQGTLVTVSSASTKGPSVFPLAPSSKSTSGGTAALGCLVKDYFPEPVTVSWNSGALTSGVHTFPAVLQSSGLYSLSSVVTVPSSSLGTQTYICNVNHKPSNTKVDKKVEPKSCDKTHTCPPCPAPELLGGPSVFLFPPKPKDTLMISRTPEVTCVVVDVSHEDPEVKFNWYVDGVEVHNAKTKPREEQYNSTYRVVSVLTVLHQDWLNGKEYKCKVSNKALPAPIEKTISKAKGQPREPQVCTLPPSRDELTENQVSLTCLVKGFYPSDIAVEWESNGQPENNYKTTPPVLDSDGSFFLYSWLTVDKSRWQQGNVFSCSVMHEALHNHYTQKSLSLSPG
# light: DIQMTQSPSSVSASVGDRVTITCRASQGISSWLAWYQQKPGKAPKLLIYAASSLQSGVPSRFSGSGSGTDFTLTISSLQPEDFATYYCQQGVSFPRTFGGGTKVEIKRTVAAPSVFIFPPSDEQLKSGTASVVCLLNNFYPREAKVQWKVDNALQSGNSQESVTEQDSKDSTYSLSSTLTLSKADYEKHKVYACEVTHQGLSSPVTKSFNRGEC
# notes: also called TriNKET bearing Enoblituzumab B7-H3 targeting domain; B7-H3 TriNKET
# B5: huAb13v1 (AbbVie Inc.) parental monoclonal antibody (antibody, V domains shown)
# VH: EVQLQESGPGLVKPSETLSLTCAVTGYSITSGYSWHWIRQFPGNGLEWMGYIHSSGSTNYNPSLKSRISISRDTSKNQFFLKLSSVTAADTAVYYCAGYDDYFEYWGQGTTVTVSS
# VL: DIQMTQSPSSLSASVGDRVTITCKASQNVGFNVAWYQQKPGKSPKALIYSASYRYSGVPSRFSGSGSGTDFTLTISSLQPEDFAEYFCQQYNWYPFTFGQGTKLEIK
# notes: as for B1
# B6: huM30 (Daiichi Sankyo, Inc.) parental monoclonal antibody (antibody, V domains shown)
# VH: QVQLVQSGAEVKKPGSSVKVSCKASGYTFTNYVMHWVRQAPGQGLEWMGYINPYNDDVKYNEKFKGRVTITADESTSTAYMELSSLRSEDTAVYYCARWGYYGSPLYYFDYWGQGTLVTVSS
# VL: EIVLTQSPATLSLSPGERATLSCRASSRLIYMHWYQQKPGQAPRPLIYATSNLASGIPARFSGSGSGTDFTLTISSLEPEDFAVYYCQQWNSNPPTFGQGTKVEIK
# notes: as for B1
# Target: T1, B7-H3 expressed on human cancer cell …
# Experiment: flow cytometry on 786-O, BT-474 and HCC1954 cells, anti-human IgG detection
# Experimental: Human cancer cell lines expressing B7-H3 were used to assess tumor antigen binding of TriNKETs derived from B7-H3 targeting clones. Human breast cancer cell lines BT-474 and HCC1954 and renal cancer cell line 786-O were used to assess binding of TriNKETs to cell expressed B7-H3. Varying concentrations of either TriNKET or monoclonal antibody were allowed to bind cells for 20 minutes on ice, after which cells were washed and the amount of bound TriNKET/monoclonal antibody was measured using fluorophore conjugated anti-human IgG secondary antibody. Cells were then analyzed by flow cytometry and binding MFI to cell expressed B7-H3 was plotted against varying concentration.
row,Binder,binding result
1,B1,binds
2,B2,binds
3,B3,binds
4,B4,binds
5,B5,binds
6,B6,binds
